Holding throughout (assay): SPR; Biacore T200; His-tagged histones immobilised on sensor chip NTA; AGEs at 6.25, 12.5, 25, 50 and 100 µg/ml, single-cycle kinetics; 10 mM HEPES, 150 mM NaCl, 0.05% Tween-20; 25 °C; 30 µl/min
Background: Surface plasmon resonance follows binding to a sensor surface in real time, without labels.

Test [1] deals with His-tagged human histone H2A (human) (UniProt P04908).
Test [2] addresses His-tagged human histone H3 (human) (UniProt P68431).
In test [3] the target is His-tagged human histone H2B (human) (UniProt P06899).

Usually Kd stands for the concentration at which binding is half-saturated. A lower Kd goes with higher affinity.

With “advanced glycation end products (AGEs): bovine serum albumin modified with dehydroascorbic acid (DHA) (from UniProt P02769 25-607) (ligand)”, the Kd in test [1] came out at 85.5 nM; in test [2] it was 96.5 nM; in test [3], 67.2 nM.

The values above are taken from paper PMC9142594.
